Source: patent US20260144882A1 (BIO THERA SOLUTIONS, published 2026)
Substitutions are numbered along the chain they refer to.

T1: human Nectin-4 extracellular antigen hNectin-4-His (human, UniProt Q96NY8 32-349)
T1 construct: C-terminal 8xHis tag included
T1 sequence: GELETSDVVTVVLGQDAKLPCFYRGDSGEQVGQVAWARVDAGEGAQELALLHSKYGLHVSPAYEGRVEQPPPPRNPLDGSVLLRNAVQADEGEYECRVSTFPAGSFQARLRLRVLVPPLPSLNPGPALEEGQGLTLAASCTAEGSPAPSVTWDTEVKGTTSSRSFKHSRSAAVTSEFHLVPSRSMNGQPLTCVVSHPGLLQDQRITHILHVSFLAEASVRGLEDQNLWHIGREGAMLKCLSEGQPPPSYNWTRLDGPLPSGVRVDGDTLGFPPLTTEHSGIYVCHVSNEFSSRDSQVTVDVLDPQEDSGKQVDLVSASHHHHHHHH

B1: 1F3-1G5 scFv (scFv, V domains shown)
VH: EVQLVESGGGLVQPGGSLRLSCAASGFSFGSYGMSWVRQAPGKGLEWVSGIKPSTSTTYYADSVKGRFTISRDNSKNTLYLQMNSLRAEDTAVYYCARAELLAFDVYTASDYWGQGTLVTVSS
VL: DIQMTQSPSSLSASVGDRVTITCRASQGISSYLAWYQQKPGKAPKLLIYAASSLQSGVPSRFSGSGSGTDFTLTISSLQPEDFATYYCQQHYTTPPTFGQGTKVEIKR
notes: phage clone supernatant
B2: 1F3-1F8 scFv (scFv, V domains shown)
VH: B1 VH with S28N, S31N, G50R, K52S, P53G, S54D, T55G, T57N, T58I, Y59N
VL: B1 VL
notes: phage clone supernatant
B3: 1F3-1F4 scFv (scFv, V domains shown)
VH: EVQLVESGGGLVQPGGSLRLSCAASGDIFTGSSMSWVRQAPGKGLEWVSGIYASGSDKRYADSVKGRFTISRDNSKNTLYLQMNSLRAEDTAVYYCARAELLAFDVYTASDYWGQGTLVTVSS
VL: B1 VL
notes: phage clone supernatant
B4: 1F3-1E4 scFv (scFv, V domains shown)
VH: B1 VH with S31T, G50R, K52S, P53G, S54D, T55S, S56A, T57N, T58I, Y59R
VL: B1 VL
notes: phage clone supernatant
B5: 1F3-2B9 scFv (scFv, V domains shown)
VH: B1 VH with S28N, G30D, G33A, S54H, S56D, T57D, T58I
VL: B1 VL
notes: phage clone supernatant
B6: 1F3-2E8 scFv (scFv, V domains shown)
VH: B1 VH with F27Y, G30S, S31D, G50W, K52S, T55K, S56G, T57S, T58A, Y59S
VL: B1 VL
notes: phage clone supernatant
B7: 1F3-1G11 scFv (scFv, V domains shown)
VH: B1 VH with F27Y, G30T, S31G, K52S, T55G, S56G, T58I, Y59G
VL: B1 VL
notes: phage clone supernatant
B8: 1F3-1G2 scFv (scFv, V domains shown)
VH: EVQLVESGGGLVQPGGSLRLSCAASGYTFGDYGMSWVRQAPGKGLEWVSRIDPWGASIRYADSVKGRFTISRDNSKNTLYLQMNSLRAEDTAVYYCARAELLAFDVYTASDYWGQGTLVTVSS
VL: B1 VL
notes: phage clone supernatant
B9: 1F3-1A9 scFv (scFv, V domains shown)
VH: B8 VH with T28S, G30D, D31N, G33A, D52S, W54T, A56G, S57Y, I58A, R59S
VL: B1 VL
notes: phage clone supernatant
B10: 1F3-2A11 scFv (scFv, V domains shown)
VH: EVQLVESGGGLVQPGGSLRLSCAASGDNFYTFYMSWVRQAPGKGLEWVSGIKPTGSYINYADSVKGRFTISRDNSKNTLYLQMNSLRAEDTAVYYCARAELLAFDVYTASDYWGQGTLVTVSS
VL: B1 VL
notes: phage clone supernatant
B11: 1F3-1D12 scFv (scFv, V domains shown)
VH: B3 VH with D27Y, I28N, G31D, S32Y, S33G, Y52S, A53G, S56D, D57N, R59Y
VL: B1 VL
notes: phage clone supernatant
B12: 1F3-1C11 scFv (scFv, V domains shown)
VH: B1 VH with S28N, G30S, G50A, K52S, P53G, T55G, S56G, T57S
VL: B1 VL
notes: phage clone supernatant
B13: 1F3-1C4 scFv (scFv, V domains shown)
VH: B1 VH with S28T, S31D, S54W, T55G, T57G
VL: B1 VL
notes: phage clone supernatant
B14: 1F3-1G7 scFv (scFv, V domains shown)
VH: B3 VH with T30S, G31N, S32Y, A53P, S56D, D57S, K58R
VL: B1 VL
notes: phage clone supernatant
B15: 1F3-2C9 scFv (scFv, V domains shown)
VH: B1 VH with S28N, S31G, G50R, K52S, S54G, T55D, T58P, Y59R
VL: B1 VL
notes: phage clone supernatant
B16: 1F3-1H11 scFv (scFv, V domains shown)
VH: B8 VH with Y27F, T28N, G30T, D52S, P53Q, A56D, S57T, I58S, R59N
VL: B1 VL
notes: phage clone supernatant
B17: 1F3-2C6 scFv (scFv, V domains shown)
VH: B3 VH with G31N, S32Y
VL: B1 VL
notes: phage clone supernatant
B18: 1F3-2B2 scFv (scFv, V domains shown)
VH: B8 VH with T28N, G30Y, D31S, R50I, D52S, W54D, A56G, S57Y, I58K
VL: B1 VL
notes: phage clone supernatant
B19: 1F3-2B2-2 scFv (scFv, V domains shown)
VH: B8 VH with T28S, G30S, Y32F, W54S, A56W, I58T, R59S
VL: B1 VL
notes: phage clone supernatant
B20: 1F3-1D6 scFv (scFv, V domains shown)
VH: B3 VH with D27G, I28S, T30Y, S32F, S33G, A53S, S54H, G55D, S56A
VL: B1 VL
notes: phage clone supernatant
B21: 1F3-1D1 scFv (scFv, V domains shown)
VH: B3 VH with G31N, S32Y, A53P, S56D, D57N, K58N
VL: B1 VL
notes: phage clone supernatant
B22: 1F3-2D2 scFv (scFv, V domains shown)
VH: B1 VH with S28N, G30S, G50R, K52S, S54Y, S56G, Y59H
VL: B1 VL
notes: phage clone supernatant
B23: 1F3-2A12 scFv (scFv, V domains shown)
VH: B1 VH with F27Y, G30D, S54T, T55G, S56A, T57S
VL: B1 VL
notes: phage clone supernatant
B24: 1F3-2D8 scFv (scFv, V domains shown)
VH: B8 VH with T28S, G30S, D52S, W54S, G55K, S57V, I58K, R59D
VL: B1 VL
notes: phage clone supernatant
B25: 1F3-1H3 scFv (scFv, V domains shown)
VH: B1 VH with S28N, G30Y, S31N, S54H, T55S, S56D, T57V, T58A, Y59H
VL: B1 VL
notes: phage clone supernatant
B26: 1F3-1E9 scFv (scFv, V domains shown)
VH: B1 VH with S28T, G30D, S31D, G33A, T55S, S56W
VL: B1 VL
notes: phage clone supernatant
B27: 1F3-1E10 scFv (scFv, V domains shown)
VH: B1 VH with S28N, G30S, G50R, K52S, S54Y, S56D, T57N, T58K
VL: B1 VL
notes: phage clone supernatant
B28: 1F3-1E1 scFv (scFv, V domains shown)
VH: B1 VH with G30D, S31D, G33A, G50I, K52Y, S54T, T55G, T58N
VL: B1 VL
notes: phage clone supernatant
B29: 1F3-2E12 scFv (scFv, V domains shown)
VH: B1 VH with F27G, S28N, G30T, S31N, Y32S, P53W, T55S, S56D, T57E
VL: B1 VL
notes: phage clone supernatant
B30: 1F3-2B1 scFv (scFv, V domains shown)
VH: B1 VH with F27Y, S28N, G30D, S31N, G33A, S54D, T55S, S56A
VL: B1 VL
notes: phage clone supernatant
B31: 1F3-1B1 scFv (scFv, V domains shown)
VH: B1 VH with S28T, S31T, S54G, T55D
VL: B1 VL
notes: phage clone supernatant

Target: T1, human Nectin-4 extracellular antigen …
Experiment: ELISA, phage scFv supernatant 1:50
Experimental: The supernatants were diluted 50-fold, and the binding OD values of the diluted supernatants to hNectin-4-His were measured by ELISA. The samples were serially 3-fold diluted, and the EC₅₀ titer for the binding of the supernatants to the antigen was measured by ELISA. […] The light chain variable region sequence is set forth in SEQ ID NO: 25. The OD value is the measurement of ELISA, and the EC₅₀ value denotes the EC₅₀ value of the binding activity titer of the supernatant to the antigen.

| Binder | OD value [OD] |
| --- | --- |
| B1 | 1.56 |
| B2 | 1.67 |
| B3 | 1.42 |
| B4 | 1.61 |
| B5 | 1.57 |
| B6 | 1.56 |
| B7 | 1.65 |
| B8 | 1.6 |
| B9 | 1.64 |
| B10 | 1.52 |
| B11 | 1.63 |
| B12 | 1.63 |
| B13 | 1.59 |
| B14 | 1.56 |
| B15 | 1.59 |
| B16 | 1.65 |

| Binder | OD value [OD] |
| --- | --- |
| B17 | 1.38 |
| B18 | 1.57 |
| B19 | 1.59 |
| B20 | 1.44 |
| B21 | 1.29 |
| B22 | 1.59 |
| B23 | 1.65 |
| B24 | 1.56 |
| B25 | 1.73 |
| B26 | 1.55 |
| B27 | 1.54 |
| B28 | 1.64 |
| B29 | 1.52 |
| B30 | 1.62 |
| B31 | 1.65 |
